# According to article PMC9279936:
# Experiments:
# [1] = test system: influenza A virus hemagglutinin (on whole virus particles) (Influenza A virus (strain not in the material)); experiment: BLI; conditions: BLI: 10 mM Tris-HCl pH 7.5, 140 mM NaCl, 10 mM KCl ([…], temperature not stated; cited from earlier work
# [2] = test system: influenza A virus hemagglutinin (on whole virus particles) (Influenza A virus (strain not in the material)); experiment: BLI; conditions: BLI: 10 mM Tris-HCl pH 7.5, 140 mM NaCl, 10 mM KCl ([…], temperature not stated
sequence,measurement,setting,value
TTGGGGTTATTTTGGGAGGGCGGGGGTT [RHA0385 (biotinylated)],Kd,[1],0.05 nM
same,Kd,[2],1.1 nM
